Laboratory results from PMC5668312, “Structural basis of katanin p60:p80 complex formation” (Scientific Reports, 2017).

Target: T1, katanin p80 C-terminal domain (p80-CTD, aa 481-658 of mouse p80), 6xHis-tagged (mouse, UniProt Q8BG40 481-658)
T1 construct: katanin p80 subunit, mouse, C-terminal domain, residues 481-658; also called 6xHis-p80CTD; source: E. coli BL21(DE3), pET28a, co-expressed with p60-MIT, purified (IMAC, SEC); not shown: 6xHis, N-terminal, kept
Experiment: AUC; sedimentation velocity of the co-purified p60-MIT:p80-CTD complex, 300 nM to 50 μM, 20 °C, 42,000 rpm, 20 mM HEPES pH 7.4, 150 mM NaCl, 2 mM 2-mercaptoethanol; apparent Kd estimated
Conditions: both partners purified

T1 sequence (Q8BG40 481-658): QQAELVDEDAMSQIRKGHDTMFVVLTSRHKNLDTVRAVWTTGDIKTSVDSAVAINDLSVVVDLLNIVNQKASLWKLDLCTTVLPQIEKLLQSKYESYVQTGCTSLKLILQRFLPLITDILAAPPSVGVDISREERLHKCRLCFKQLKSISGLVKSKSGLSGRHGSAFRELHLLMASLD

stoichiometry N: 1
B1: katanin p60 MIT domain (p60-MIT, aa 1-78 of mouse p60), wild type (domain or fragment, UniProt Q9WV86 1-78, looked up)
chain: MSLQMIVENVKLAREYALLGNYDSAMVYYQGVLDQMNKYLYSVKDTHLRQKWQQVWQEINVEAKQVKDIMKTLESFKL
notes: katanin p60 subunit, mouse, N-terminal MIT domain, residues 1-78; Co-purified with m2 as the p60-MIT:6xHis-p80CTD complex; source: E. coli BL21(DE3), pET28a, co-expressed with 6xHis-p80-CTD, purified (IMAC, SEC)
